# According to patent US20220339289A1 (Bicycle, published 2022):
# Starred links: 1 amine or outer side, 2 acyl side, 3 side chain; linkers in the order of their positions; H or OH if unused. Positions of bridges follow the written chain, without caps; N, C: chain ends. Non-standard residues stand in square brackets, D forms with d. Primed or numbered codes have the meaning given here. No end group written: not given here. *: point of attachment. TCAZ″ = 1,1',1''-(1,4,7-triazonane-1,4,7-triyl)tris(2-chloroethan-1-one) scaffold, O=C(C[*:1])N1CCN(C(=O)C[*:2])CCN(C(=O)C[*:3])CC1; TCAZ = 1,1',1''-(1,4,7-triazonane-1,4,7-triyl)tris(2-chloroethan-1-one); TATA = O=C(CC[*:1])N1CN(C(=O)CC[*:2])CN(C(=O)CC[*:3])C1; 1Nal = N[C@@H](Cc1cccc2ccccc12)C(=O)O; Pent4ynoyl = C#CCCC(=O)*
# T1: Recombinant biotinylated human P-Selectin protein (human, UniProt P16109 42-771, limits assumed, biotinylated (site not stated))
# T1 sequence (looked up): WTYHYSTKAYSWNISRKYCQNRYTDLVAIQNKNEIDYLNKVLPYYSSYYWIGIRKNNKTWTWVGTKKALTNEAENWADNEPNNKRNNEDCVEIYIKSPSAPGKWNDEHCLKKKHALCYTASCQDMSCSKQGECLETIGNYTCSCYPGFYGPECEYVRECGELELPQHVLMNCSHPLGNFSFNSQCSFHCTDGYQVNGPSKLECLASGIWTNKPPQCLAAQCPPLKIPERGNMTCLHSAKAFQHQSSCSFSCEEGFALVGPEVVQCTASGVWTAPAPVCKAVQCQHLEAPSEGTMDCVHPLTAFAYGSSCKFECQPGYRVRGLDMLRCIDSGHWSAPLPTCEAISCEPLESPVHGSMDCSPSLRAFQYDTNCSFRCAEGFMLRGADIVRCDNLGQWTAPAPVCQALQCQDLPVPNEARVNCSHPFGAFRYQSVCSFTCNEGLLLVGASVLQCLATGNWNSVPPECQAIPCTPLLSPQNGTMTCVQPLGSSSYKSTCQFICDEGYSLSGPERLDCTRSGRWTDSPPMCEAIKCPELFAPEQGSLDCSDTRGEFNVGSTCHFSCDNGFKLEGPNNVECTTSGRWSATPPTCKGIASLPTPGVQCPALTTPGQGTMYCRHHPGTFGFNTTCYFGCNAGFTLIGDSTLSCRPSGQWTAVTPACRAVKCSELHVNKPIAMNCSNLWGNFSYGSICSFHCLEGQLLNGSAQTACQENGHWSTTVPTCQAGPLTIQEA
# B1: BCY5459 (peptide)
# peptide: Pent4ynoyl-ACYMEWCDVTDYGCA-NH2
# modifications: linker 2-7-14 via TATA; also: trimer of 3 copies via central hinge B (TCA) and spacer S1A n=23 joined to N-terminal Pya
# B2: BCY5454 (peptide)
# peptide: Pent4ynoyl-ACYMEWCDVTDYGCA-NH2
# modifications: linker 2-7-14 via TATA; also: tandem dimer of 2 copies via central hinge C (GTA) and spacer S1A n=10 joined to N-terminal Pya
# B3: SelG1 (Crizanlizumab) (antibody, V domains shown)
# VH: QVQLVQSGAEVKKPGASVKVSCKVSGYTFTSYDINWVRQAPGKGLEWMGWIYPGDGSIKYNEKFKGRVTMTVDKSTDTAYMELSSLRSEDTAVYYCARRGEYGNYEGAMDYWGQGTLVTVSS
# VL: DIQMTQSPSSLSASVGDRVTITCKASQSVDYDGHSYMNWYQQKPGKAPKLLIYAASNLESGVPSRFSGSGSGTDFTLTISSLQPEDFATYYCQQSDENPLTFGGGTKVEIK
# B4: BCY12257 (peptide)
# peptide: ACDADWCDVPSLPCAK(Pent4ynoyl)-NH2
# modifications: linker 2-7-14 via TCAZ″; not fully specified; also: tandem dimer of 2 copies via central hinge C (GTA) and spacer S1A n=23 joined to K(Pya)
# B5: BCY12261 (peptide)
# peptide: ACDADWCDVPSLPCAK(Pent4ynoyl)-NH2
# modifications: linker 2-7-14 via TCAZ″; not fully specified; also: tetramer of 4 copies via central hinge A (Tet) and spacer S1A n=23 joined to K(Pya)
# B6: BCY11648 (peptide)
# peptide: ACDADWCDVPSLPCA-NH2
# modifications: linker 2-7-14 via TCAZ″
# notes: Monomeric bicyclic peptide
# B7: BCY10194 (peptide)
# peptide: ACYMEWCDVTDYGCA-NH2
# modifications: linker 2-7-14 via TATA
# notes: Monomeric bicyclic peptide
# B8: BCY12259 (peptide)
# peptide: ACDADWCDVPSLPCAK(Pent4ynoyl)-NH2
# modifications: linker 2-7-14 via TCAZ″; not fully specified; also: trimer of 3 copies via central hinge B (TCA) and spacer S1A n=23 joined to K(Pya)
# B9: BCY5462 (peptide)
# peptide: Pent4ynoyl-ACYMEWCDVTDYGCA-NH2
# modifications: linker 2-7-14 via TATA; also: tetramer of 4 copies via central hinge A (Tet) and spacer S1A n=10 joined to N-terminal Pya
# B10: BCY5463 (peptide)
# peptide: Pent4ynoyl-ACYMEWCDVTDYGCA-NH2
# modifications: linker 2-7-14 via TATA; also: tetramer of 4 copies via central hinge A (Tet) and spacer S1A n=23 joined to N-terminal Pya
# B11: BCY12027 (peptide)
# peptide: ACDAD[1Nal]CDVPSLPCA-NH2
# modifications: linker 2-7-14 via TCAZ
# notes: Monomeric bicyclic peptide
# B12: BCY11279 (peptide)
# peptide: Ac-ACYME[1Nal]CDVTDYGCA-NH2
# modifications: linker 2-7-14 via TATA
# notes: Monomeric bicyclic peptide
# B13: BCY9717 (peptide)
# peptide: Ac-CYMEWCDVTDYGC-NH2
# modifications: linker 1-6-13 via TATA
# notes: Monomeric bicyclic peptide; also called BCY09717
# B14: BCY5458 (peptide)
# peptide: Pent4ynoyl-ACYMEWCDVTDYGCA-NH2
# modifications: linker 2-7-14 via TATA; also: trimer of 3 copies via central hinge B (TCA) and spacer S1A n=10 joined to N-terminal Pya
# Key:
# [1] = target: T1, Recombinant biotinylated human …; assay: SPR (Biacore), biotinylated human P-selectin captured on streptavidin chip, peptide as analyte; peptide BCY5459, a separate peptide number
# Protocol: (§1) Biacore experiments were performed to determine ka (M−1s−1), kd (s−1), KD (nM) values of monomeric peptides binding to human Selectin proteins. Recombinant biotinylated human P-Selectin protein was used. For analysis of binding, either a Biacore 3000 or 5200 instrument was used with a CMS sensor chip (GE Healthcare). For sensor chip surface preparation, streptavidin was immobilized on the chip using standard amine-coupling chemistry at 25° C. with HBS-N (10 mM HEPES, 0.15 M NaCl, pH 7.4) as the running buffer. The carboxymethyl dextran surface was activated with a 12 min injection of a 1:1 ratio of 0.4 M 1-ethyl-3-(3-dim ethyl aminopropyl) carbodiimide hydrochloride (EDC)/0.1 M N-hydroxy succinimide (NHS) at a flow rate of 10 μl/min. For capture of streptavidin, protein was diluted to 0.2 mg/ml in 10 mM sodium acetate (pH 4.5) and captured by injecting 70 μl onto the activated chip surface. Residual activated groups were blocked with a 7 min injection of 1 M ethanolamine (pH 8.5). Biotinylated protein stock was diluted 1:100 in HBS-N and captured on one flow cell at 5 μl/min to a level of 1000-1500 RU. Buffer was changed to PBS/0.05% Tween 20 and a dilution series of the peptides was prepared in this buffer with a final DMSO concentration of 0.5%. […] In all cases a titration was performed with either seven 2-fold dilutions or five 3-fold dilutions. […]
# [2] = target: T1, Recombinant biotinylated human …; assay: SPR (Biacore), biotinylated human P-selectin captured on streptavidin chip, peptide as analyte; peptide BCY5454, a separate peptide number
# Protocol: as §1
# [3] = target: T1, Recombinant biotinylated human …; assay: inhibition of 5 nM P-selectin binding to HL-60 cells (PSGL1), mirrorball cytometer, geomean of n=3
# Protocol: Bicycle test samples, SelG1 (Crizanlizumab) were serially diluted maintaining 0.5% DMSO in assay buffer (25 mM HEPES, 121 mM NaCl, 5.4 mM KCl, 0.8 mM MgCl₂, 1.8 mM CaCl₂), 6 mM NaHCO₂, 5.5 mM glucose, 1% BSA, pH7.4) and transferred to 384 well clear bottom plates (Corning, 3712) with a final volume of 6 μL. […], of P-Selectin in imaging buffer (25 mM HEPES, 121 mM NaCl, 5.4 mM KCl, 0.8 mM MgCl₂, 1.8 mM CaCl₂), 6 mM NaHCO₂, 5.5 mM glucose, pH7.4) was added to give a 5 nM final concentration and incubated at room temperature for 15 minutes. HL-60 cells (ATCC, CCL-240) mixed with 1 μg/mL far red labelled wheat germ agglutinin (WGA, ThermoFisher W21404) and 1 μg/mL AlexaFluor 488-streptavidin (Invitrogen S11223) were added to the plate and incubated for 2 hours at room temperature in the absence of light. Staining and antibody binding were quantified by simultaneously scanning the microplates with 488 nm and 640 nm lasers on a mirrorball microplate cytometer, AF488 on FL2 triggering on AF647-WGA on FL4. Data was analysed in Dotmatics, using a four parameter logistic fit to generate IC50 values and % response. Percent inhibition was calculated using 100−% response at top concentration.
# [4] = target: T1, Recombinant biotinylated human …; assay: SPR (Biacore), biotinylated human P-selectin captured on streptavidin chip, peptide as analyte; peptide BCY12257, a separate peptide number
# Protocol: as §1
# [5] = target: T1, Recombinant biotinylated human …; assay: SPR (Biacore), biotinylated human P-selectin captured on streptavidin chip, peptide as analyte; peptide BCY12261, a separate peptide number
# Protocol: as §1
# [6] = target: T1, Recombinant biotinylated human …; assay: SPR (Biacore), biotinylated human P-selectin captured on streptavidin chip, peptide as analyte
# Protocol: Biacore experiments were performed to determine ka (M−1s−1), kd (s−1), KD (nM) values of monomeric peptides binding to human Selectin proteins. Recombinant biotinylated human P-Selectin protein was used. For analysis of binding, either a Biacore 3000 or 5200 instrument was used with a CMS sensor chip (GE Healthcare). For sensor chip surface preparation, streptavidin was immobilized on the chip using standard amine-coupling chemistry at 25° C. with HBS-N (10 mM HEPES, 0.15 M NaCl, pH 7.4) as the running buffer. The carboxymethyl dextran surface was activated with a 12 min injection of a 1:1 ratio of 0.4 M 1-ethyl-3-(3-dim ethyl aminopropyl) carbodiimide hydrochloride (EDC)/0.1 M N-hydroxy succinimide (NHS) at a flow rate of 10 μl/min. For capture of streptavidin, protein was diluted to 0.2 mg/ml in 10 mM sodium acetate (pH 4.5) and captured by injecting 70 μl onto the activated chip surface. Residual activated groups were blocked with a 7 min injection of 1 M ethanolamine (pH 8.5). Biotinylated protein stock was diluted 1:100 in HBS-N and captured on one flow cell at 5 μl/min to a level of 1000-1500 RU. Buffer was changed to PBS/0.05% Tween 20 and a dilution series of the peptides was prepared in this buffer with a final DMSO concentration of 0.5%. […] In all cases a titration was performed with either seven 2-fold dilutions or five 3-fold dilutions. The SPR analysis was run at 25° C. with a flow rate of 50-80 μl/min with 60 seconds association and a suitable disassociation period (100-900 seconds). Data were corrected for DMSO excluded volume effects. All data were double-referenced for blank injections and reference surface using standard processing procedures and data processing and kinetic fitting were performed using Scrubber software, version 2.0c (BioLogic Software). Data were fitted using mass transport model allowing for mass transport effects where appropriate.
# [7] = target: T1, Recombinant biotinylated human …; assay: SPR (Biacore), biotinylated human P-selectin captured on streptavidin chip, peptide as analyte; peptide BCY10194 (A-(SEQ ID NO: 6)-A)
# Protocol: as §1
# [8] = target: T1, Recombinant biotinylated human …; assay: SPR (Biacore), biotinylated human P-selectin captured on streptavidin chip, peptide as analyte; peptide BCY12259, a separate peptide number
# Protocol: as §1
# [9] = target: T1, Recombinant biotinylated human …; assay: SPR (Biacore), biotinylated human P-selectin captured on streptavidin chip, peptide as analyte; peptide BCY5462, a separate peptide number
# Protocol: as §1
# [10] = target: T1, Recombinant biotinylated human …; assay: SPR (Biacore), biotinylated human P-selectin captured on streptavidin chip, peptide as analyte; peptide BCY5463, a separate peptide number
# Protocol: as §1
# [11] = target: T1, Recombinant biotinylated human …; assay: SPR (Biacore), biotinylated human P-selectin captured on streptavidin chip, peptide as analyte; peptide BCY5458, a separate peptide number
# Protocol: as §1
binder,measurement,setting,value
B1,Kd,[1],169 nM
B2,Kd,[2],400 nM
B3,IC50,[3],4.75 nM
same,Inhibition at top concentration (%),[3],96%
B4,Kd,[4],11.6 nM
B5,Kd,[5],0.019 nM
B6,Kd,[6],128 nM
same,IC50,[3],> 117 nM
same,Inhibition at top concentration (%),[3],37%
B7,Kd,[7],9500 nM
B8,Kd,[8],0.233 nM
B9,Kd,[9],88 nM
B10,Kd,[10],53 nM
B11,Kd,[6],5.36 nM
same,IC50,[3],> 36.8 nM
same,Inhibition at top concentration (%),[3],36%
B12,Kd,[6],690 nM
same,IC50,[3],> 3540 nM
same,Inhibition at top concentration (%),[3],24%
B13,Kd,[6],7600 nM
same,IC50,[3],> 10900 nM
same,Inhibition at top concentration (%),[3],20%
B14,Kd,[11],400 nM
